Results: the supplement of paper PMC10126150
± gives the standard deviation of the averaged measurements.

System: ATP
Assay: switch fluorescence ratio, 500 uM ATP over buffer (Cy3 cluster intensity, sum of 5 cycles each) (fold (ratio)); higher = stronger signal-on switching upon ATP binding; sequences stand for … in TCGTCGGCAGCGTCAGATGTGTATAAGAGACAGTTTTTTTTTTTTTTTTTTTTTTTTT…TC
Settings: aptamer strand: ATP DNA aptamer (quencher-CACCTGGGGGAGTATTGCGGAGGAAGG + anchor), 100 nM annealed; ATP concentration: 500 uM
Outline: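 After annealing to 100 nM quencher-labelled ATP aptamer, Cy3-labelled switching-strand clusters on a modified Illumina MiSeq flow-cell were imaged in selection buffer. A second image followed after 15 min with 500 uM ATP at 22 °C, and five such buffer/ATP cycles were done, each separated by NaOH stripping and re-annealing. The fluorescence ratio, averaged per switch-domain sequence, is summed target-cycle over summed buffer-cycle Cy3 intensity per cluster, with clusters outside 100-1000 RFU excluded.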
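Further: ATP exposure 15 min at 22 °C before imaging.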

TAAGAGGTGT and TAAGAGTAAT are within error of each other in switch fluorescence ratio: 1.04 ± 0.062 for the first, 0.985 ± 0.042 for the second.

TAAGATATTA and TAAGATGGAG are within error of each other in switch fluorescence ratio: 0.998 ± 0.02 for the first, 1 ± 0.021 for the second.

TAAGATGGGG and TAAGATGTTT are within error of each other in switch fluorescence ratio: 0.9623 ± 0.0054 for the first, 0.957 ± 0.034 for the second.

TAAGCGCAGA and TAAGCGCCAT are within error of each other in switch fluorescence ratio: 1.01 ± 0.03 for the first, 1.029 ± 0.0049 for the second.

TAAGCGGCGA and TAAGCTGGTA are within error of each other in switch fluorescence ratio: 0.973 ± 0.013 for the first, 0.995 ± 0.036 for the second.

TAAGGAAAGG and TAAGGAATCG are within error of each other in switch fluorescence ratio: 0.982 ± 0.027 for the first, 1 ± 0.043 for the second.

Going from TAAGGAATGT to TAAGGCATTG, the switch fluorescence ratio falls from 1.04 ± 0.0038 to 0.996 ± 0.016.

TAAGGCGCCG and TAAGGCGGTA are within error of each other in switch fluorescence ratio: 0.962 ± 0.031 for the first, 0.963 ± 0.035 for the second.

TAAGGCGGTC and TAAGGCTGAA are within error of each other in switch fluorescence ratio: 0.991 ± 0.098 for the first, 1.02 ± 0.039 for the second.

TAAGGCTTTG and TAAGGGCCCG are within error of each other in switch fluorescence ratio: 0.9987 ± 0.0068 for the first, 0.991 ± 0.069 for the second.

TAAGGGCGGT and TAAGGGGAGC are within error of each other in switch fluorescence ratio: 0.957 ± 0.032 for the first, 1.01 ± 0.03 for the second.

TAAGGGGAGG and TAAGGGGGTA are within error of each other in switch fluorescence ratio: 1 ± 0.017 for the first, 0.992 ± 0.039 for the second.

TAAGGGGTAG and TAAGGGGTGT are within error of each other in switch fluorescence ratio: 0.994 ± 0.052 for the first, 1.03 ± 0.027 for the second.

TAAGGGTCTT and TAAGGGTGCC are within error of each other in switch fluorescence ratio: 0.996 ± 0.047 for the first, 1.01 ± 0.03 for the second.

TAAGGGTTCT and TAAGGTAAAA are within error of each other in switch fluorescence ratio: 0.9916 ± 0.0089 for the first, 1.001 ± 0.0041 for the second.

TAAGGTAACG and TAAGGTAAGG are within error of each other in switch fluorescence ratio: 1.05 ± 0.12 for the first, 1.01 ± 0.031 for the second.

Going from TAAGGTATTA to TAAGGTGAGG, the switch fluorescence ratio rises from 0.972 ± 0.019 to 1.04 ± 0.023.

TAAGGTGATG and TAAGGTGGGA are within error of each other in switch fluorescence ratio: 1.01 ± 0.046 for the first, 0.996 ± 0.03 for the second.

TAAGGTGGTT and TAAGGTTACT are within error of each other in switch fluorescence ratio: 0.976 ± 0.034 for the first, 0.977 ± 0.035 for the second.

TAAGGTTGGC and TAAGTAGCAG are within error of each other in switch fluorescence ratio: 1.02 ± 0.04 for the first, 0.997 ± 0.025 for the second.

TAAGTATTTT and TAAGTCGAAA are within error of each other in switch fluorescence ratio: 1.01 ± 0.027 for the first, 1 ± 0.019 for the second.

TAAGTCGTTG and TAAGTGAAAA are within error of each other in switch fluorescence ratio: 1.03 ± 0.12 for the first, 0.995 ± 0.0094 for the second.

TAAGTGCAAG and TAAGTGGAAC are within error of each other in switch fluorescence ratio: 1.01 ± 0.033 for the first, 1.002 ± 0.0063 for the second.

Going from TAAGTGGGTT to TAAGTGTAGC, the switch fluorescence ratio rises from 0.992 ± 0.034 to 1.035 ± 0.0035.

TAAGTGTATG and TAAGTGTTGG are within error of each other in switch fluorescence ratio: 1.007 ± 0.0034 for the first, 1 ± 0.018 for the second.

First: TAAGTTAATA
Second: TAAGTTAGCC
The switch fluorescence ratio of the first is lower: 1.02 ± 0.016 for the first, 1.049 ± 0.005 for the second.

TAAGTTAGGT and TAAGTTGTAA are within error of each other in switch fluorescence ratio: 1.03 ± 0.1 for the first, 0.999 ± 0.019 for the second.

TAAGTTTTCA and TAATAAATCT are within error of each other in switch fluorescence ratio: 1.02 ± 0.023 for the first, 0.9967 ± 0.0051 for the second.

TAATAATCCA and TAATACCCCG are within error of each other in switch fluorescence ratio: 0.994 ± 0.017 for the first, 1.06 ± 0.054 for the second.

First: TAATACGTTT
Second: TAATACTATT
The switch fluorescence ratio of the first is lower: 0.986 ± 0.032 for the first, 1.05 ± 0.016 for the second.

Compared with TAATAGAATT, TAATATAACC is higher in switch fluorescence ratio: 1 ± 0.014 for the first, 1.04 ± 0.014 for the second.

TAATATAGGT and TAATATAGTG are the same in switch fluorescence ratio: 1.018 ± 0.0097 for the first, 1.02 ± 0.045 for the second.

TAATATCGGG and TAATATCTTT are within error of each other in switch fluorescence ratio: 0.98 ± 0.027 for the first, 0.995 ± 0.054 for the second.

TAATATGGGG and TAATATGGTG are within error of each other in switch fluorescence ratio: 1.01 ± 0.039 for the first, 0.998 ± 0.014 for the second.

TAATCAACGA and TAATCAATAT are within error of each other in switch fluorescence ratio: 1 ± 0.019 for the first, 1.013 ± 0.0017 for the second.

TAATCATCGA and TAATCATGGT are within error of each other in switch fluorescence ratio: 0.99 ± 0.017 for the first, 0.969 ± 0.024 for the second.

TAATCCCTTT and TAATCCGGTC are within error of each other in switch fluorescence ratio: 1.01 ± 0.04 for the first, 1.04 ± 0.094 for the second.

TAATCGTC and TAATCGTGCT are within error of each other in switch fluorescence ratio: 0.968 ± 0.023 for the first, 0.973 ± 0.019 for the second.

TAATCTAGGG and TAATCTGAGT are within error of each other in switch fluorescence ratio: 0.985 ± 0.046 for the first, 1.01 ± 0.025 for the second.

TAATGAATGT and TAATGAGGGG are within error of each other in switch fluorescence ratio: 1.02 ± 0.04 for the first, 0.992 ± 0.033 for the second.

First: TAATGAGTGG
Second: TAATGATTTT
The switch fluorescence ratio of the first is higher: 1.0154 ± 0.001 for the first, 0.967 ± 0.031 for the second.

TAATGGAAAT and TAATGGCTCG are within error of each other in switch fluorescence ratio: 0.979 ± 0.022 for the first, 1 ± 0.008 for the second.

TAATGGGCGA and TAATGGGCTT are within error of each other in switch fluorescence ratio: 0.976 ± 0.064 for the first, 0.997 ± 0.012 for the second.

TAATGGGGCG and TAATGGGTGG are within error of each other in switch fluorescence ratio: 0.997 ± 0.025 for the first, 1.02 ± 0.083 for the second.

TAATGGTCGT and TAATGGTCTT are within error of each other in switch fluorescence ratio: 0.989 ± 0.029 for the first, 1.02 ± 0.14 for the second.

Going from TAATGTAAAA to TAATGTGGGA, the switch fluorescence ratio falls from 0.992 ± 0.01 to 0.96651 ± 0.00012.

TAATGTGTAC and TAATGTGTGT are the same in switch fluorescence ratio: 1.024 ± 0.0044 for the first, 1.016 ± 0.0091 for the second.

TAATGTGTTA and TAATGTTTTT are within error of each other in switch fluorescence ratio: 1.04 ± 0.13 for the first, 0.985 ± 0.039 for the second.

TAATTAATCT and TAATTAATTT are within error of each other in switch fluorescence ratio: 0.992 ± 0.049 for the first, 1.02 ± 0.025 for the second.

TAATTACAGT and TAATTATGGG are within error of each other in switch fluorescence ratio: 0.9904 ± 0.0021 for the first, 1.04 ± 0.056 for the second.

TAATTATTAA and TAATTCGGCA are within error of each other in switch fluorescence ratio: 1.01 ± 0.019 for the first, 0.995 ± 0.0044 for the second.

Compared with TAATTGATTA, TAATTGCTTT is lower in switch fluorescence ratio: 1.0033 ± 0.00096 for the first, 0.966 ± 0.029 for the second.

First: TAATTGGACT
Second: TAATTGGGTG
The switch fluorescence ratio of the first is lower: 1.01 ± 0.013 for the first, 1.09 ± 0.031 for the second.

TAATTTAAAG and TAATTTAAGT are within error of each other in switch fluorescence ratio: 1 ± 0.041 for the first, 1.01 ± 0.028 for the second.

TAATTTCCTT and TAATTTCTAA are within error of each other in switch fluorescence ratio: 1.06 ± 0.16 for the first, 0.9946 ± 0.0029 for the second.

TAATTTGAGT and TAATTTGATG are within error of each other in switch fluorescence ratio: 1 ± 0.014 for the first, 0.979 ± 0.027 for the second.

TAATTTGGTT and TAATTTGTTC are within error of each other in switch fluorescence ratio: 1.01 ± 0.026 for the first, 1 ± 0.026 for the second.

First: TAATTTTAAA
Second: TAATTTTAAT
The switch fluorescence ratio of the first is lower: 0.988 ± 0.018 for the first, 1.025 ± 0.0087 for the second.

TAATTTTATA and TAATTTTTGC are within error of each other in switch fluorescence ratio: 0.9789 ± 0.0046 for the first, 1.02 ± 0.043 for the second.

TAATTTTTTG and TACAAATCTA are within error of each other in switch fluorescence ratio: 0.997 ± 0.021 for the first, 1 ± 0.036 for the second.

Compared with TACAAATGTT, TACAACATTT is higher in switch fluorescence ratio: 1 ± 0.018 for the first, 1.06 ± 0.015 for the second.

TACAACTAGA and TACAAGCTGT are within error of each other in switch fluorescence ratio: 1 ± 0.024 for the first, 1.01 ± 0.014 for the second.

TACAAGGAGA and TACAAGGGTA are within error of each other in switch fluorescence ratio: 1 ± 0.012 for the first, 1.01 ± 0.06 for the second.

First: TACAAGTTTT
Second: TACAATTTGA
The switch fluorescence ratio of the first is higher: 0.986 ± 0.0093 for the first, 0.954 ± 0.018 for the second.

Going from TACAATTTTA to TACACGCCTT, the switch fluorescence ratio rises from 1.006 ± 0.0041 to 1.05 ± 0.015.

TACAGAAGCG and TACAGAATGT are the same in switch fluorescence ratio: 1.033 ± 0.0073 for the first, 1.03 ± 0.023 for the second.

TACAGAGGTT and TACAGATTTG are the same in switch fluorescence ratio: 1.01 ± 0.059 for the first, 1.01 ± 0.037 for the second.

TACAGCTTCT and TACAGGGATC are within error of each other in switch fluorescence ratio: 1.005 ± 0.0065 for the first, 0.993 ± 0.027 for the second.

TACAGGGCCT and TACAGGGGGA are within error of each other in switch fluorescence ratio: 0.9882 ± 0.0085 for the first, 1.09 ± 0.14 for the second.

TACAGGTCAT and TACAGGTCGG are the same in switch fluorescence ratio: 1 ± 0.018 for the first, 1 ± 0.033 for the second.

First: TACAGTAGAT
Second: TACAGTGGAG
The switch fluorescence ratio of the first is higher: 1.06 ± 0.038 for the first, 1.011 ± 0.0044 for the second.

TACAGTTGTA and TACATATGTC are within error of each other in switch fluorescence ratio: 0.971 ± 0.06 for the first, 1.04 ± 0.077 for the second.

TACATCGTGC and TACATGCATG are within error of each other in switch fluorescence ratio: 0.992 ± 0.016 for the first, 1.001 ± 0.0031 for the second.

Compared with TACATGGACC, TACATTAATA is lower in switch fluorescence ratio: 1.12 ± 0.025 for the first, 1.054 ± 0.0049 for the second.

TACATTCGTC and TACATTTCCA are within error of each other in switch fluorescence ratio: 1.07 ± 0.075 for the first, 1.04 ± 0.04 for the second.

TACATTTTTT and TACCACCGGT are within error of each other in switch fluorescence ratio: 1.01 ± 0.022 for the first, 1.02 ± 0.047 for the second.

In the case of TACCAGAGCA, the switch fluorescence ratio is reported as 1.08 ± 0.022.
